Data: paper PMC9482650, “Quantitative fragmentomics allow affinity mapping of interactomes” (Nature Communications, 2022)

Legend:
Experiment in all cases: holdup assay
Design in all cases: key: below the threshold = too weak to quantify, mostly under pKd 3.1 to 4
[1] = target: T1, TJP3_3, O95049
T1 sequence (O95049 375-456, limits assumed, looked up): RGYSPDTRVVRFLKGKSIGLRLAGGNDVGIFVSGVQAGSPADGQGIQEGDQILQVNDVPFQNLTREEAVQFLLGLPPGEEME

[2] = target: T2, MPP2, Q14168
T2 sequence (Q14168 180-250, limits assumed, looked up): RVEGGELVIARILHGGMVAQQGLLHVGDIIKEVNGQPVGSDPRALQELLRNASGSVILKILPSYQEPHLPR

[3] = target: GORASP1, Q9BQQ3
[4] = target: T3, PDZD7_3, Q9H5P4
T3 sequence (Q9H5P4 857-944, limits assumed, looked up): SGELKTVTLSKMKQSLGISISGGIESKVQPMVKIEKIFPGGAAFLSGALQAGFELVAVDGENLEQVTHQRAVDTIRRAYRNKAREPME

[5] = target: IL16_1, Q14005
[6] = target: GRIP2_6, Q9C0E4
[7] = target: T4, GRIP1_4, Q9Y3R0
T4 sequence (Q9Y3R0 467-571, limits assumed, looked up): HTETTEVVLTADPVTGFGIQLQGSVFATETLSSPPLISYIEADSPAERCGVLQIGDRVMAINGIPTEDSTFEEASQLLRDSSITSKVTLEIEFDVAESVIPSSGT

[8] = target: LNX1_1, Q8TBB1
[9] = target: T5, MPDZ_5, O75970
T5 sequence (O75970 695-796, limits assumed, looked up): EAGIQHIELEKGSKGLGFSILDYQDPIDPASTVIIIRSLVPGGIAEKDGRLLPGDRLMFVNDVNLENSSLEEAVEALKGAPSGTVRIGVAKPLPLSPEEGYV

[10] = target: SCRIB_2, Q14160
[11] = target: T6, MPP6, Q9NZW5
T6 sequence (Q9NZW5 125-219, limits assumed, looked up): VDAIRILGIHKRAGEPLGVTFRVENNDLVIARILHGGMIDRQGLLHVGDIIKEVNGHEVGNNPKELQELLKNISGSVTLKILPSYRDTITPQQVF

[12] = target: MAGI1_2, Q96QZ7
[13] = target: T7, NHERF3_1, Q5T2W1
T7 sequence (Q5T2W1 4-100, limits assumed, looked up): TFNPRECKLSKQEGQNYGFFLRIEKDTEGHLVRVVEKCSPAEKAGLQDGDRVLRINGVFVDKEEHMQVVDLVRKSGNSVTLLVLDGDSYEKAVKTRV

[14] = target: LNX1_2, Q8TBB1
[15] = target: DLG1_1, Q12959
[16] = target: T8, PDZD2_2, O15018
T8 sequence (O15018 329-429, limits assumed, looked up): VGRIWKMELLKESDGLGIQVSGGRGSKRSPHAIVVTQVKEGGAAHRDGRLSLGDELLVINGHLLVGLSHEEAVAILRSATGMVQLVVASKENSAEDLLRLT

[17] = target: T9, SYNJ2BP, P57105
T9 sequence (P57105 8-110, limits assumed, looked up): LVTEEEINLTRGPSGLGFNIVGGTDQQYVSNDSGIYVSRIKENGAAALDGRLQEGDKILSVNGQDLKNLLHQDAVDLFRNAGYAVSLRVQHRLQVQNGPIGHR

[18] = target: T10, MPP7, Q5T2T1
T10 sequence (Q5T2T1 134-230, limits assumed, looked up): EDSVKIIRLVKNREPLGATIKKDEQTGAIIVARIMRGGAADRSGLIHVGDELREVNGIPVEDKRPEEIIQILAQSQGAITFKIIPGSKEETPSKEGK

[19] = target: T11, APBA2_2, Q99767
T11 sequence (Q99767 654-744, limits assumed, looked up): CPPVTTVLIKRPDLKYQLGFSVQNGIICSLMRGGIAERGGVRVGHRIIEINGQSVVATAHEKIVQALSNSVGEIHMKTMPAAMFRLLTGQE

[20] = target: HTRA2, O43464
[21] = target: FRMPD2_3, Q68DX3
[22] = target: T12, LRRC7, Q96NW7
T12 sequence (Q96NW7 1440-1537, limits assumed, looked up): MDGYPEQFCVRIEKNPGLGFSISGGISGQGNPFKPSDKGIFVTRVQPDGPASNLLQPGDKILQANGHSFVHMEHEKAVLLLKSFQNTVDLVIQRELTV

[23] = target: MAGI2_4, Q86UL8
[24] = target: T13, RHPN1, Q8TCX5
T13 sequence (Q8TCX5 508-602, limits assumed, looked up): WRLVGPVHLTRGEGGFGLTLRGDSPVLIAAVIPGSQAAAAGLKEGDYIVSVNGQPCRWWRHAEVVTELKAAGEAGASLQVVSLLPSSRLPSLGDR

[25] = target: DLG4_3, P78352
[26] = plain residues with an end cap or a label only (N-terminal biotin on a linker: ado-ado)
[27] = plain residues with an end cap or a label only (N-terminal biotin on a linker: ahx)
[28] = plain residues with an end cap or a label only (N-terminal biotin on a linker: (peg)3)

Chain of LNX1_2, Q8TBB1 (Q8TBB1 371-470): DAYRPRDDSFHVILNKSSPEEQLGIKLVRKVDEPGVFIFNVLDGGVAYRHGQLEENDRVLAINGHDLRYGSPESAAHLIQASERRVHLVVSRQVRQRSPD
Chain of FRMPD2_3, Q68DX3 (Q68DX3 1073-1166): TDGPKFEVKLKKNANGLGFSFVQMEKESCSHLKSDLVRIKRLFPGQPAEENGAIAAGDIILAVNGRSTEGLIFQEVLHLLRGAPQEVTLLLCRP
Chain of LNX1_1, Q8TBB1 (Q8TBB1 261-371): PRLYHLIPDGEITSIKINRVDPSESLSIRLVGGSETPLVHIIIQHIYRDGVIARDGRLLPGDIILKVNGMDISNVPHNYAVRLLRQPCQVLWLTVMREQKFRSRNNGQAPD
Chain of MAGI2_4, Q86UL8 (Q86UL8 772-865): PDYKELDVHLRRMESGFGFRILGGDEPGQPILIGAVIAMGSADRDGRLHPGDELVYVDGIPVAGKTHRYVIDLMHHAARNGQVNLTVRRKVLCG
Chain of DLG4_3, P78352 (P78352 306-403): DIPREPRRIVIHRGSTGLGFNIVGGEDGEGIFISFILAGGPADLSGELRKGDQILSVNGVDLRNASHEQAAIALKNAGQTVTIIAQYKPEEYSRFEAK
Chain of SCRIB_2, Q14160 (Q14160 857-960): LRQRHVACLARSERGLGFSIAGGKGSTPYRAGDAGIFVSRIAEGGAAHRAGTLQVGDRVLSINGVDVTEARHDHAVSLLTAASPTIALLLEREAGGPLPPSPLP
Chain of HTRA2, O43464 (O43464 355-458): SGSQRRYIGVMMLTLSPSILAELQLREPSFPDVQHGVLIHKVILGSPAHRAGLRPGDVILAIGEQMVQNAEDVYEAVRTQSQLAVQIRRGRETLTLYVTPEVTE
Chain of GORASP1, Q9BQQ3 (Q9BQQ3 1-208): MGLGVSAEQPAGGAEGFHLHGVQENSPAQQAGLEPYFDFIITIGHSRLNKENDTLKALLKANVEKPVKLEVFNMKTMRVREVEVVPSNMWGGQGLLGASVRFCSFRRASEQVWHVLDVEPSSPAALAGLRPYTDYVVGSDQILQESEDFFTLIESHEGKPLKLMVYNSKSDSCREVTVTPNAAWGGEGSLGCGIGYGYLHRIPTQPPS
Chain of IL16_1, Q14005 (Q14005 210-306): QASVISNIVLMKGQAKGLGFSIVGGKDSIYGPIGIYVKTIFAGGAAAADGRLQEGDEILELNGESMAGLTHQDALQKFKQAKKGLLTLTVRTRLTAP
Chain of GRIP2_6, Q9C0E4 (Q9C0E4 648-740): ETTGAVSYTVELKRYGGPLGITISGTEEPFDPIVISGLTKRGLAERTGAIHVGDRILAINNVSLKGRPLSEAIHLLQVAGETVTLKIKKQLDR
Chain of MAGI1_2, Q96QZ7 (Q96QZ7 456-580): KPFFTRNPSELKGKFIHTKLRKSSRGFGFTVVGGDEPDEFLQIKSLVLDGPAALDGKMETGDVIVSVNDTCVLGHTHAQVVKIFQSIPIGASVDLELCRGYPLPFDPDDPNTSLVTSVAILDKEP

Binder: EIPAQSPTCV [FZD10, Q9ULW2]
- pKd [1, 26]: 3.78
- pKd [2, 26]: below the threshold
- pKd [3, 26]: 3.85
- pKd [4, 26]: 4.3
- pKd [5, 26]: 3.79
- pKd [6, 26]: 3.74
- pKd [7, 26]: 3.64
- pKd [8, 26]: below the threshold
- pKd [9, 26]: below the threshold
- pKd [10, 26]: below the threshold
- pKd [11, 26]: below the threshold
- pKd [12, 26]: 3.88
- pKd [13, 26]: below the threshold
- pKd [14, 26]: 4.13
- pKd [15, 26]: 3.85
- pKd [16, 26]: 4.49
- pKd [17, 26]: 4.36
- pKd [18, 26]: below the threshold
- pKd [19, 26]: 3.63
- pKd [20, 26]: 3.76
- pKd [21, 26]: 3.77
- pKd [22, 26]: below the threshold
- pKd [23, 26]: 3.65
- pKd [24, 26]: below the threshold
- pKd [25, 26]: below the threshold

Binder: QDEKVKESYV [ABCA1, O95477]
- pKd [1, 27]: below the threshold
- pKd [2, 27]: below the threshold
- pKd [3, 27]: 3.66
- pKd [4, 27]: 5.35
- pKd [5, 27]: 4.91
- pKd [6, 27]: below the threshold
- pKd [7, 27]: below the threshold
- pKd [8, 27]: 4.38
- pKd [9, 27]: 3.63
- pKd [10, 27]: 4.61
- pKd [11, 27]: below the threshold
- pKd [12, 27]: 4.03
- pKd [13, 27]: 5.12
- pKd [14, 27]: below the threshold
- pKd [15, 27]: 4.6
- pKd [16, 27]: 5.66
- pKd [17, 27]: 5.22
- pKd [18, 27]: below the threshold
- pKd [19, 27]: below the threshold
- pKd [20, 27]: below the threshold
- pKd [21, 27]: 3.9
- pKd [22, 27]: 4.13
- pKd [23, 27]: 4.04
- pKd [24, 27]: 4.9
- pKd [25, 27]: 3.78

Binder: DPAESMESLV [PTPRG, P23470]
- pKd [1, 26]: below the threshold
- pKd [2, 26]: below the threshold
- pKd [3, 26]: below the threshold
- pKd [4, 26]: 4.54
- pKd [5, 26]: 4.53
- pKd [6, 26]: below the threshold
- pKd [7, 26]: below the threshold
- pKd [8, 26]: 4.06
- pKd [9, 26]: below the threshold
- pKd [10, 26]: 3.68
- pKd [11, 26]: below the threshold
- pKd [12, 26]: 3.55
- pKd [13, 26]: 4.7
- pKd [14, 26]: below the threshold
- pKd [15, 26]: 4.45
- pKd [16, 26]: 5.16
- pKd [17, 26]: 4.74
- pKd [18, 26]: below the threshold
- pKd [19, 26]: below the threshold
- pKd [20, 26]: below the threshold
- pKd [21, 26]: below the threshold
- pKd [22, 26]: below the threshold
- pKd [23, 26]: 4.25
- pKd [24, 26]: 4.17
- pKd [25, 26]: below the threshold

Binder: RYEDTTLVEDTVL [WNV-NS5, Q9Q6P4]
- pKd [1, 28]: below the threshold
- pKd [2, 28]: below the threshold
- pKd [3, 28]: 3.77
- pKd [4, 28]: 4.54
- pKd [5, 28]: below the threshold
- pKd [6, 28]: below the threshold
- pKd [7, 28]: below the threshold
- pKd [8, 28]: 3.74
- pKd [9, 28]: below the threshold
- pKd [10, 28]: below the threshold
- pKd [11, 28]: below the threshold
- pKd [12, 28]: below the threshold
- pKd [13, 28]: 4.43
- pKd [14, 28]: below the threshold
- pKd [15, 28]: 3.58
- pKd [16, 28]: 4.42
- pKd [17, 28]: 3.66
- pKd [18, 28]: below the threshold
- pKd [19, 28]: below the threshold
- pKd [20, 28]: below the threshold
- pKd [21, 28]: below the threshold
- pKd [22, 28]: 3.49
- pKd [23, 28]: below the threshold
- pKd [24, 28]: 4.41
- pKd [25, 28]: below the threshold

Binder: NISYRRESAI [KCNJ4, P48050]
- pKd [1, 26]: below the threshold
- pKd [2, 26]: below the threshold
- pKd [3, 26]: below the threshold
- pKd [4, 26]: 4.05
- pKd [5, 26]: 3.55
- pKd [6, 26]: below the threshold
- pKd [7, 26]: below the threshold
- pKd [8, 26]: below the threshold
- pKd [9, 26]: below the threshold
- pKd [10, 26]: 3.69
- pKd [11, 26]: below the threshold
- pKd [12, 26]: 3.89
- pKd [13, 26]: 3.75
- pKd [14, 26]: below the threshold
- pKd [15, 26]: 3.54
- pKd [16, 26]: 4.36
- pKd [17, 26]: 4.84
- pKd [18, 26]: below the threshold
- pKd [19, 26]: below the threshold
- pKd [20, 26]: below the threshold
- pKd [21, 26]: below the threshold
- pKd [22, 26]: below the threshold
- pKd [23, 26]: below the threshold
- pKd [24, 26]: below the threshold
- pKd [25, 26]: 4.12

Binder: QPRTWLQSPV [RTKN, Q9BST9]
- pKd [1, 27]: below the threshold
- pKd [2, 27]: below the threshold
- pKd [3, 27]: below the threshold
- pKd [4, 27]: below the threshold
- pKd [5, 27]: 3.95
- pKd [6, 27]: below the threshold
- pKd [7, 27]: below the threshold
- pKd [8, 27]: below the threshold
- pKd [9, 27]: below the threshold
- pKd [10, 27]: below the threshold
- pKd [11, 27]: below the threshold
- pKd [12, 27]: 4.83
- pKd [13, 27]: 4.29
- pKd [14, 27]: below the threshold
- pKd [15, 27]: 3.74
- pKd [16, 27]: 4.71
- pKd [17, 27]: 5.2
- pKd [18, 27]: below the threshold
- pKd [19, 27]: below the threshold
- pKd [20, 27]: below the threshold
- pKd [21, 27]: below the threshold
- pKd [22, 27]: 3.73
- pKd [23, 27]: below the threshold
- pKd [24, 27]: 3.7
- pKd [25, 27]: 4.35
